These results are taken from patent US20190112392A1 (Ablynx, published 2019).

The target in assay [1] is T1, human CD3 expressed on HEK293H cells (human, UniProt P04234 22-171; P09693 23-182; P07766 23-207; P20963 22-164).
T1 construct: also called HEK293H human CD3; HEK293H CD3
Description: flow cytometry on HEK293H human CD3 cells, MCF. On the procedure:
(§1) Binding of purified monovalent anti-TCR Nanobodies to human TCR(2IAN)/CD3 expressed on HEK293H cells was evaluated and compared with the binding to HEK293H cells transfected with human CD3 in flow cytometry, as outlined in Example 5. Dilution series of anti-TCR Nanobodies starting from 1 μM were applied to the cells. The parental HEK293H cell line was included as TCR/CD3 negative cell line.
(Flow cytometry measures light scatter and fluorescence of single cells or particles in a stream.)

Assay [2] addresses T2, T cell receptor alpha/beta on purified primary human T cells (human, UniProt P01848 1-140; P01850 1-176).
T2 construct: whole, on cells; also called human primary T cells
T2 TCR alpha (looked up): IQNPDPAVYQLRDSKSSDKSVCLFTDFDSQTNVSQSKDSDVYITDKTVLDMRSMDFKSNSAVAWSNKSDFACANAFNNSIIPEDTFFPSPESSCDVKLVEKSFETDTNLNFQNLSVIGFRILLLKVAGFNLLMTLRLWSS
T2 TCR beta (looked up): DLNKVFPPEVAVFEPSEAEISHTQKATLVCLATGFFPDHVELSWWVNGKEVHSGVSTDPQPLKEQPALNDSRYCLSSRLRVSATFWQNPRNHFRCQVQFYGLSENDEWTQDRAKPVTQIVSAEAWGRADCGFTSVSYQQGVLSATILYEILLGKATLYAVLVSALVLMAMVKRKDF
Description: flow cytometry, purified primary human T cells. On the procedure:
Periplasmic extracts were screened for cell expressed TCR/CD3 binding using human TCR/CD3 transfected CHO-K1 or HEK293H cells and the respective CHO-K1 or HEK293H reference cell line in a mixed cell line setup. To this end, a large batch of the reference cell lines were labelled with 8 μM PKH26 and frozen. 5×10⁴ PKH labelled reference cells were mixed with 5×10⁴ target cells and incubated with periplasmic extracts for 30 min at 4′C, and washed 3 times. […] Samples were washed, resuspended in FACS Buffer (D-PBS from Gibco, with 10% FBS from Sigma and 0.05% sodium azide from Merck) and then analysed via a BD FACSArray. […] In this gate, 20,000 cells were counted during acquisition. Based on PKH26-SSC distribution, the PKH labelled parental population and the human TCR/CD3 unlabelled target population was selected. For these 2 populations the mean APC value was calculated.
Binding of purified monovalent anti-TCR Nanobodies to human TCR(2XN9)/CD3 expressed on CHO-K1 cells and to purified primary human T cells was evaluated in flow cytometry as outlined in Example 4.1.

Assay [3] deals with T1, human CD3 expressed on HEK293H cells. The experiment in a line: flow cytometry, HEK293H human CD3 cells. The procedure:
as §1
Nanobodies clearly bound to human TCR(2IAN)/CD3 expressed on HEK293H but not to the HEK293H cells transfected with human CD3 only, nor to the HEK293H parental cell line. The EC50 values obtained from the dose response curve are depicted in Table C-2.

Another assay concerns the target HER2 on cells (human, UniProt P04626 23-1255). Description: cell-based or functional assay.
In assay [4] the target is T cell receptor alpha/beta on primary cynomolgus T cells (cynomolgus). The experiment in a line: cell-based or functional assay.
Assay [5] concerns the target T3, soluble recombinant cynomolgus TCR alpha/beta-zipper protein (cynomolgus/rhesus monkey).
T3 construct: Made in house in CHOK1SV cells; extracellular domains fused to a zipper protein; also called cynoTCR-zipper protein; not shown: zipper protein (O'Shea et al. 1993)
T3 V domain 1: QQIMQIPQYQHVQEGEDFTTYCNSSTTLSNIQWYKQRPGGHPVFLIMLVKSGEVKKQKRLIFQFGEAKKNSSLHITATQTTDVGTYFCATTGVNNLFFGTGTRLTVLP
T3 V domain 2: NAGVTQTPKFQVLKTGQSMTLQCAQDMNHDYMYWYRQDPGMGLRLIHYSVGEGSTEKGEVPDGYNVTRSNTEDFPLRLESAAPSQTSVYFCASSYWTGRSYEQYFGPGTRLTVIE
Description: ELISA, coated soluble cynomolgus TCR-zipper. The procedure: Quality of the TCR α/β zipper proteins was assessed in an ELISA binding assay. Maxisorp 96-well ELISA plates (Nunc) were coated with 2 μg/mL soluble recombinant human TCR α/β (2XN9)-zipper protein or soluble recombinant cynomolgus TCR α/β-zipper protein. After an overnight incubation, plates were washed and blocked with PBS+1% casein for 1 h at room temperature. Next, plates were incubated with serial dilutions of either a functional flag tagged Nanobody or the functional mouse IgG anti-non-human primate/Rat TCRα/β antibody, clone R73 (eBioscience 16-5960) for 1 h at room temperature while shaking, washed again and incubated with mouse anti-flag-HRP (Sigma, #A8592) respectively rabbit anti-mouse-HRP (Dako, # P0260). After 1 h, TMB One Solution (Promega #G7431) was added. The reaction was stopped with 2M H₂SO₄ and the dose dependent binding was determined by measuring the OD at 450 nm using the Tecan sunrise 4 (FIG. 2).
Binding of purified monovalent anti-TCR Nanobodies to soluble recombinant cynomolgus TCR c/3 protein was evaluated in ELISA (as described in Example 1.2) using 2 μg/ml directly coated recombinant soluble cynomolgus TCR-α/β zipper protein.
Background: An ELISA detects its analyte on a solid surface through an enzyme-linked reagent.

In assay [6] the target is T4, EGFR on cells (UniProt P00533 25-1210, limits assumed).
T4 construct: whole, on cells; also called HER14 cells (NIH3T3 transfected with EGFR); EGFR on LS174T and LoVo cells
Description: flow cytometry, LoVo cells. Further details: Top: unit not given here.

Assay [7] concerns the target T4, EGFR on cells. Description: cell-based or functional assay.
The target in assay [8] is T4, EGFR on cells. The experiment in a line: flow cytometry, HER14 cells.
Assay [9] concerns the target T4, EGFR on cells. Description: flow cytometry, LS174T cells. Further details: Top: unit not given here.
Assay [10] deals with T4, EGFR on cells. The experiment in a line: cell-based or functional assay. The source holds these as a separate data set.

T1 sequence (P04234 22-171 limits assumed, chain 1 of 4): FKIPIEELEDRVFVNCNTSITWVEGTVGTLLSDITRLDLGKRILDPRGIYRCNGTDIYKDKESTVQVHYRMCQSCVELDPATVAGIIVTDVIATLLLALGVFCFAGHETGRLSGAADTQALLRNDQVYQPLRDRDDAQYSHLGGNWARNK
T1 sequence (P09693 23-182 limits assumed, chain 2 of 4): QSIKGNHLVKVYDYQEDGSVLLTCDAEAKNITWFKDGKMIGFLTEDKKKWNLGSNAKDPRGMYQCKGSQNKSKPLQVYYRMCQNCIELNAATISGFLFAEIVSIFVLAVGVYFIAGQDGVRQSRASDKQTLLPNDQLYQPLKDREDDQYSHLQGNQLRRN
T1 sequence (P07766 23-207 limits assumed, chain 3 of 4): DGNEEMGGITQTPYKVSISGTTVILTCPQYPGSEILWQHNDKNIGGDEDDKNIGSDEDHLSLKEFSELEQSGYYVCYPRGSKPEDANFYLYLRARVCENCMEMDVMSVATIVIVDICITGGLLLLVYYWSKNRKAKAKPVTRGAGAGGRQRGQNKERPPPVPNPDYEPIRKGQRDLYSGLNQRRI
T1 sequence (P20963 22-164 limits assumed, chain 4 of 4): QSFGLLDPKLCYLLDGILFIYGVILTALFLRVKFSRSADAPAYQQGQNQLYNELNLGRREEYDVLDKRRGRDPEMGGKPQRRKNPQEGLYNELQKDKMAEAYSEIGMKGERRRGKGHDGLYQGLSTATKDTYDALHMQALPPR

B1: T0170061G01 (VHH)
VHH: EVQLVESGGGLVQPGGSLRLSCAASGEIGRINFYRWYRQAPGNQREVVATITIADKTDYADSAKGRFTISRDESRNMVYLQMSSLKPEDTAVYFCHAGSRLYPYDYWGQGTQVTVSS
notes: Monovalent anti-TCR Nanobody, cluster C; expressed in E. coli as triple Flag, His6-tagged protein; also called T0170PMP061G01; not shown: C-terminal triple Flag-His6 tag of the E. coli-expressed monovalent
For orientation: EC50 means the concentration giving half of the maximal effect. Consider B1, for which the binding result in [1] is listed as “no binding (tested: 1e-6 M)”. The same molecule showed an EC50 in assay [2] of more than 100 nM. Besides, the “MCF at 1 µM” value in assay [3] was found to be 495 MCF.

B2: T017000102 (bispecific antibody)
chain: EVQLVESGGGLVQAGGSLRLSCAASGITFSINTMGWYRQAPGKQRELVALISSIGDTYYADSVKGRFTISRDNAKNTVYLQMNSLKPEDTAVYYCKRFRTAAQGTDYWGQGTLVTVSSGGGGSGGGGSGGGGSGGGGSGGGGSGGGGSGGGGSEVQLVESGGGLVQPGGSLRLSCVASGDVHKINFLGWYRQAPGKEREKVAHISIGDQTDYADSAKGRFTISRDESKNMVYLQMNSLKPEDTAVYFCRAFSRIYPYDYWGQGTLVTVSSGAADYKDHDGDYKDHDIDYKDDDDKGAAHHHHHH
Turning to B2, in the assay with HER2 on cells, the “IC50 (column head prints EC50), xCELLigence based cytotoxicity (readout 18 h), MCF-7, human T cells, E/T 15:1” value came to 0.12 nM and the “IC50, xCELLigence based cytotoxicity (readout 18 h), SKBR3, human T cells, E/T 15:1” value turned out to be 0.014 nM. In addition, the “IC50, xCELLigence cynomolgus T cell mediated SKBR3 killing assay” value in [4] was found to be 0.046 nM.

B3: T017000103 (bispecific antibody)
chain: EVQLVESGGGLVQPGGSLRLSCVASGDVHKINFLGWYRQAPGKEREKVAHISIGDQTDYADSAKGRFTISRDESKNMVYLQMNSLKPEDTAVYFCRAFSRIYPYDYWGQGTLVTVSSGGGGSGGGGSGGGGSGGGGSGGGGSGGGGSGGGGSEVQLVESGGGLVQAGGSLRLSCAASGITFSINTMGWYRQAPGKQRELVALISSIGDTYYADSVKGRFTISRDNAKNTVYLQMNSLKPEDTAVYYCKRFRTAAQGTDYWGQGTLVTVSSGAADYKDHDGDYKDHDIDYKDDDDKGAAHHHHHH
Take B3: in the assay with HER2 on cells, the “IC50, xCELLigence based cytotoxicity (readout 18 h), MCF-7, human T cells, E/T 15:1” value came out at 0.059 nM and the “IC50, xCELLigence based cytotoxicity (readout 18 h), SKBR3, human T cells, E/T 15:1” value was 0.0038 nM. Further, the “IC50, xCELLigence cynomolgus T cell mediated SKBR3 killing assay” value in assay [4] was found to be 0.012 nM.

B4: T0170068G05 (VHH)
VHH: VQLVEESGGGLVQPGGSLRLSCITSGETFKINIWGWYRQAPGKQRELVASLTIGGATNYADSVKGRFTISEDSAKNTVYLQMNSLKPEDTAVYFCNAKSRIYPYDYWGRGTQVTVSS
notes: Monovalent anti-TCR Nanobody, cluster B; expressed in E. coli as triple Flag, His6-tagged protein; also called T0170PMP068G05; not shown: C-terminal triple Flag-His6 tag of the E. coli-made monovalent Nanobody
As to B4, the values for the EC50 in assay [5] and in assay [2] were 87 nM and more than 100 nM, respectively. The binding result in [1] is listed as “no binding (tested: 1e-6 M)”. For the same molecule, in assay [3], the “MCF at 1 µM” value amounted to 240 MCF.

B5: T017000110 (other)
chain: EVQLVESGGGLVQAGGSLRLSCAASGRTFSSYVMGWFRQATGKEREFVATIAWDSGSTYYADSVKGRFTISRDNAKNTVHLQMNSLKPEDTAVYYCAASYNVYYNNYYYPISRDEYDYWGQGTLVTVSSGGGGSGGGGSGGGGSGGGGSGGGGSGGGGSGGGGSEVQLVESGGGSVQAGGSLRLSCAASGYTIGPYCMGWFRQAPGKEREGVAAINMGGGITYYADSVKGRFTISQDNAKNTVYLLMNSLEPEDTAIYYCAADSTIYASYYECGHGLSTGGYGYDSWGQGTLVTVSSGGGGSGGGGSGGGGSGGGGSGGGGSGGGGSGGGGSEVQLVESGGGLVQPGGSLRLSCVASGDVHKINFLGWYRQAPGKEREKVAHISIGDQTDYADSAKGRFTISRDESKNMVYLQMNSLKPEDTAVYFCRAFSRIYPYDYWGQGTLVTVSSGAADYKDHDGDYKDHDIDYKDDDDKGAAHHHHHH
notes: EGFR x irrelevant (anti-egg lysozyme) x TCR Nanobody construct; entry includes the FLAG3-HIS6 tag; also called EGFR038G07-35GS-cAbLys3(D1E,Q5V,A6E,Q108L)-35GS-T0170056G05-FLAG3-HIS6
In the assay with EGFR on cells [6], B5 yielded an EC50 of 2.4 nM and a Top of 95900. In the assay with EGFR on cells [7], the “IC50, xCELLigence human T cell mediated killing of LS174T cells, E:T 15, 30-40 h” value was 26 nM and the “IC50, xCELLigence human T cell mediated killing of LoVo cells, E:T 15, 30-40 h” value came to 1.5 nM. In the assay with EGFR on cells [8], this molecule yielded a half-maximal effective concentration (EC50) of 7.3 nM and a Top of 165000. In the assay with EGFR on cells [9], the EC50 was found to be 6.3 nM and the Top was 40800. Besides, in the assay with EGFR on cells [10], the “IC50, xCELLigence human T cell mediated killing of HER14 cells, E:T 15, 50-60 h” value was 0.42 nM; the “IC50, xCELLigence human T cell mediated killing of LS174T cells, E:T 15, 50-60 h” value amounted to 8.9 nM; the “IC50, xCELLigence human T cell mediated killing of LoVo cells, E:T 15, 50-60 h” value came out at 0.6 nM.
